Results as given in patent US20140249073A1.

Experiments:
[1] = biological target: T1, fluorogenic peptide substrate decanoyl-LSSPAY(NO2)A-ADK(abz)PD
T1 chain: LSSPAYAADKPD

[2] = biological target: T2, fluorogenic peptide substrate decanoyl-LTPTAY(NO2)A-ASK(abz)DD
T2 chain: LTPTAYAASKDD

B1: Full length His-tagged S. aureus SPase (protein)
chain: MKKELLEWIISIAVAFVILFIVGKFIVTSYTIKGESMDPTLKDGERVAVNIIGYKTGGLEKGNVVVFHANKNDDYVKRVIGVPGDKVEYKNDTLYVNGKKQDEPYLNYNLKHKQGDYITGTFQVKDLPNANPKSNVIPKGKYLVLGDNREVSKDSRAFGLIDEDQIVGKVSFRFWPFSEFKHNFNPENTKN
second order rate constant (Kcat/Km) of substrate cleavage [1]: 10^5 M^-1 s^-1
second order rate constant (Kcat/Km) of substrate cleavage [2]: 10^5 M^-1 s^-1
